Experimental data published in patent US7087215B2 (priority 1998, dated 2006).

What was measured:
blood glucose levels = test: Blood glucose levels by Bayer's glucometer Elite after injection or mouth spray in fasted diabetic volunteers; assay type: in vivo, human
Experimental: (§1) Ten diabetic volunteers were asked to fast overnight and not have any breakfast prior to dosing. On the first day, the volunteers were given 10 units insulin by injection (regular fast acting insulin, obtained from Eli Lilly). On the second day, the volunteers were given 60 units insulin of this example (10 puffs of 6 units each) into the mouth, without inhalation. Plasma insulin levels were measured at intervals by the RIA method for 3 hours. Blood glucose levels were also monitored at intervals using Bayer's glucometer Elite for 3 hours.
(§2) Tests were also conducted with 40 units of spray at 10 puffs each, and compared to 10 units injected by measuring plasma levels and glucose levels as above. The results are shown in Table 7 (plasma) and 8 (glucose).
(§3) Ten diabetic volunteers were asked to fast overnight and not have any breakfast prior to dosing. On the first day, the volunteers were given 10 units insulin by injection. On the second day, the volunteers were given 60 units insulin of this example (10 puffs of 6 units each) into the mouth, without inhalation. Plasma insulin levels were measured at intervals by the RIA method for 3 hours. Blood glucose levels were also monitored at intervals using Bayer's glucometer Elite for 3 hours.
(§4) On the first day, each patient had 7 units regular fast acting insulin, obtained from Eli Lilly, administered by injection. On the second day, each patient was given 70 units of the insulin formulation of this Example (7 puffs of 10 unit each) into the mouth, without inhalation. Blood samples were collected and plasma glucose levels were measured at intervals using Bayer's glucometer Elite for 3 hours. Insulin levels were also monitored at intervals by the RIA method for 3 hours.

[1] = Plasma insulin levels by RIA method after injection or mouth spray in diabetic volunteers; assay type: in vivo, human
Experimental: as §1, §2, §3, §4

[2] = time 0 min, insulin 10 units by injection, Example 2 60 units by mouth spray, average of ten fasted diabetic volunteers
[3] = time 0 min, insulin 10 units by injection, Example 3 60 units by mouth spray, average of ten fasted diabetic volunteers
[4] = time 0 min, insulin 10 units injected, Example 2 40 units of spray, measured as above
[5] = time 15 min, insulin 10 units by injection, Example 2 60 units by mouth spray, average of ten fasted diabetic volunteers
[6] = time 15 min, insulin 10 units by injection, Example 3 60 units by mouth spray, average of ten fasted diabetic volunteers
[7] = time 15 min, insulin 10 units injected, Example 2 40 units of spray, measured as above
[8] = time 30 min, insulin 10 units by injection, Example 2 60 units by mouth spray, average of ten fasted diabetic volunteers
[9] = time 30 min, insulin 10 units by injection, Example 3 60 units by mouth spray, average of ten fasted diabetic volunteers
[10] = time 30 min, insulin 10 units injected, Example 2 40 units of spray, measured as above
[11] = time 45 min, insulin 10 units by injection, Example 2 60 units by mouth spray, average of ten fasted diabetic volunteers
[12] = time 45 min, insulin 10 units by injection, Example 3 60 units by mouth spray, average of ten fasted diabetic volunteers
[13] = time 60 min, insulin 10 units by injection, Example 2 60 units by mouth spray, average of ten fasted diabetic volunteers
[14] = time 60 min, insulin 10 units by injection, Example 3 60 units by mouth spray, average of ten fasted diabetic volunteers
[15] = time 60 min, insulin 10 units injected, Example 2 40 units of spray, measured as above
[16] = time 90 min, insulin 10 units by injection, Example 2 60 units by mouth spray, average of ten fasted diabetic volunteers
[17] = time 90 min, insulin 10 units by injection, Example 3 60 units by mouth spray, average of ten fasted diabetic volunteers
[18] = time 90 min, insulin 10 units injected, Example 2 40 units of spray, measured as above
[19] = time 120 min, insulin 10 units by injection, Example 2 60 units by mouth spray, average of ten fasted diabetic volunteers
[20] = time 120 min, insulin 10 units by injection, Example 3 60 units by mouth spray, average of ten fasted diabetic volunteers
[21] = time 120 min, insulin 10 units injected, Example 2 40 units of spray, measured as above
[22] = time 150 min, insulin 10 units by injection, Example 2 60 units by mouth spray, average of ten fasted diabetic volunteers
[23] = time 150 min, insulin 10 units by injection, Example 3 60 units by mouth spray, average of ten fasted diabetic volunteers
[24] = time 150 min, insulin 10 units injected, Example 2 40 units of spray, measured as above
[25] = time 180 min, insulin 10 units by injection, Example 2 60 units by mouth spray, average of ten fasted diabetic volunteers
[26] = time 180 min, insulin 10 units by injection, Example 3 60 units by mouth spray, average of ten fasted diabetic volunteers
[27] = time 180 min, insulin 10 units injected, Example 2 40 units of spray, measured as above

## insulin
Blood glucose levels; [2]
  Blood glucose level: 6.1 millimoles per liter
Blood glucose levels; [3]
  Blood glucose level: 6.6 millimoles per liter
Blood glucose levels; [4]
  Blood glucose level: 5.8 millimoles per liter
Blood glucose levels; [5]
  Blood glucose level: 6.0 millimoles per liter
Blood glucose levels; [6]
  Blood glucose level: 6.5 millimoles per liter
Blood glucose levels; [7]
  Blood glucose level: 6.0 millimoles per liter
Blood glucose levels; [8]
  Blood glucose level: 5.9 millimoles per liter
Blood glucose levels; [9]
  Blood glucose level: 6.1 millimoles per liter
Blood glucose levels; [10]
  Blood glucose level: 5.9 millimoles per liter
Blood glucose levels; [11]
  Blood glucose level: 5.5 millimoles per liter
Blood glucose levels; [12]
  Blood glucose level: 5.5 millimoles per liter
Blood glucose levels; [13]
  Blood glucose level: 5.1 millimoles per liter
Blood glucose levels; [14]
  Blood glucose level: 4.9 millimoles per liter
Blood glucose levels; [15]
  Blood glucose level: 5.5 millimoles per liter
Blood glucose levels; [16]
  Blood glucose level: 4.5 millimoles per liter
Blood glucose levels; [17]
  Blood glucose level: 4.5 millimoles per liter
Blood glucose levels; [18]
  Blood glucose level: 5.0 millimoles per liter
Blood glucose levels; [19]
  Blood glucose level: 3.8 millimoles per liter
Blood glucose levels; [20]
  Blood glucose level: 3.8 millimoles per liter
Blood glucose levels; [21]
  Blood glucose level: 4.5 millimoles per liter
Blood glucose levels; [22]
  Blood glucose level: 4.2 millimoles per liter
Blood glucose levels; [23]
  Blood glucose level: 3.5 millimoles per liter
Blood glucose levels; [24]
  Blood glucose level: 4.1 millimoles per liter
Blood glucose levels; [25]
  Blood glucose level: 4.4 millimoles per liter
Blood glucose levels; [26]
  Blood glucose level: 4.4 millimoles per liter
Blood glucose levels; [27]
  Blood glucose level: 3.9 millimoles per liter
[1]; [2]
  Plasma insulin level: 10 micromoles per ml
[1]; [3]
  Plasma insulin level: 9 micromoles per ml
[1]; [4]
  Plasma insulin level: 9 micromoles per ml
[1]; [5]
  Plasma insulin level: 9.1 micromoles per ml
[1]; [6]
  Plasma insulin level: 9.1 micromoles per ml
[1]; [7]
  Plasma insulin level: 9 micromoles per ml
[1]; [8]
  Plasma insulin level: 11 micromoles per ml
[1]; [9]
  Plasma insulin level: 14 micromoles per ml
[1]; [10]
  Plasma insulin level: 13 micromoles per ml
[1]; [11]
  Plasma insulin level: 16 micromoles per ml
[1]; [12]
  Plasma insulin level: 20 micromoles per ml
[1]; time 45 min, insulin 10 units injected, Example 2 40 units of spray, measured as above
  Plasma insulin level: 19 micromoles per ml
[1]; [13]
  Plasma insulin level: 31 micromoles per ml
[1]; [14]
  Plasma insulin level: 40 micromoles per ml
[1]; [15]
  Plasma insulin level: 34 micromoles per ml
[1]; [16]
  Plasma insulin level: 45 micromoles per ml
[1]; [17]
  Plasma insulin level: 48 micromoles per ml
[1]; [18]
  Plasma insulin level: 45 micromoles per ml
[1]; [19]
  Plasma insulin level: 32 micromoles per ml
[1]; [20]
  Plasma insulin level: 39 micromoles per ml
[1]; [21]
  Plasma insulin level: 42 micromoles per ml
[1]; [22]
  Plasma insulin level: 25 micromoles per ml
[1]; [23]
  Plasma insulin level: 34 micromoles per ml
[1]; [24]
  Plasma insulin level: 35 micromoles per ml
[1]; [25]
  Plasma insulin level: 20 micromoles per ml
[1]; [26]
  Plasma insulin level: 27 micromoles per ml
[1]; [27]
  Plasma insulin level: 24 micromoles per ml
